This note sets out measurements from patent publication US20220235142A1 (SHANGHAI GENBASE BIOTECHNOLOGY, published 2022).

Test [1] concerns the target T1, CEACAM6 protein overexpressed on CHO cells (UniProt P40199 35-320, limits assumed).
T1 construct: whole, on cells; also called CHO-CEACAM6
T1 sequence (looked up): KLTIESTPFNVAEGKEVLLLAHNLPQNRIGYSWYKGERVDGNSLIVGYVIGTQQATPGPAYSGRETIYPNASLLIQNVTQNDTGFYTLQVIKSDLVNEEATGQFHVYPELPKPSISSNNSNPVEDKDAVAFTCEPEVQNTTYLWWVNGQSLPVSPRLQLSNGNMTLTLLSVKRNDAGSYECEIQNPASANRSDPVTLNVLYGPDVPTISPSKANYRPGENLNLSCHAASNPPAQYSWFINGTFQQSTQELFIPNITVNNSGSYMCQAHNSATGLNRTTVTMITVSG
The experiment in a line: flow cytometry on CHO-CEACAM6 cells. As for the experimental part: (§1) Flow cytometry (FACS) was used to detect the binding of antibody to LOVO tumor cells that naturally expressed human CEACAM5 protein or cells that overexpressed different CEACAM proteins. In short, cells were first collected, washed with PBS, counted, and diluted to obtain 2*10⁶/ml cell suspension; 10 μl of an antibody working solution was added to 100 μl of the cell suspension, and incubated at 4° C. for 30 min in the dark; after washing twice with PBS, a corresponding fluorescent-labeled secondary antibody Goat-anti-Human IgG (H+L) (Invitrogen) was added, incubated at 4° C. for 30 min in the dark, after washing twice with PBS, it was suspended in 400 μl of FACS buffer, and the binding situations of the antibody to the cells were detected by FACS.
(§2) The binding situations of the supernatants of the chimeric antibody UM05-6L and the control antibody UM05-8 (anti-CEACAM5 antibody, prepared by the hybridoma method in our laboratory) to different cells at a concentration of 3 μg/mL were detected, in which SW620-CEACAM1 was a cell overexpressing CEACAM1 protein, SW620-CEACAM3 was a cell overexpressing CEACAM3 protein, CHO-CEACAM6 was a cell overexpressing CEACAM6 protein, CHO-CEACAM7 was a cell overexpressing CEACAM7 protein, and CHO-CEACAM8 was a cell overexpressing CEACAM8 protein. […]

Another test addresses T2, human CEACAM5 protein (human, UniProt P06731 35-685, limits assumed).
T2 construct: Protein used as ELISA coating; the immunogen was CEACAM5 protein (L2C01001) purified from tumor patients; also called CD66e; carcinoembryonic antigen cell adhesion molecule 5
T2 sequence (looked up): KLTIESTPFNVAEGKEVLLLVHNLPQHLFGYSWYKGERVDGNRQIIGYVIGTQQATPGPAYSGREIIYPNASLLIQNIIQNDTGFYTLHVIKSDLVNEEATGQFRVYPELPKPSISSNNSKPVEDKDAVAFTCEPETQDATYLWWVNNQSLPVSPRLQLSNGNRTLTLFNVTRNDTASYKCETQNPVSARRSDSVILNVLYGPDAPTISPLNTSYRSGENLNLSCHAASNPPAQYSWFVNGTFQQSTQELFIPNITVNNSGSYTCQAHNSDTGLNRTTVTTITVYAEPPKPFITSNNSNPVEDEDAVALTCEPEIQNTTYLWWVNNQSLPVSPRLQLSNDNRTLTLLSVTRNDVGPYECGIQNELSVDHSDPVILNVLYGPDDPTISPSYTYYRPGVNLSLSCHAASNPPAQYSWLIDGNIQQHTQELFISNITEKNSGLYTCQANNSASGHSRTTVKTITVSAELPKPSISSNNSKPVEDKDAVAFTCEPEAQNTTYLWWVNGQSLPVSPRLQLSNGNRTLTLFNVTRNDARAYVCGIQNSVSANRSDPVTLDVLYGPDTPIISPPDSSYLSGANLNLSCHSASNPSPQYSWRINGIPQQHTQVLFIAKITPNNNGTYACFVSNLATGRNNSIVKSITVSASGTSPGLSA
Description: ELISA, plate coated with human CEACAM5 protein at 1 µg/mL, goat anti-human IgG HRP. On the procedure:
On the next day, it was first washed with 300 μL of PBST (Tween20: 0.5‰) for 3 times, then blocked with 100 μL/well of 5% BSA/PBS for 1 hour, and shaken at room temperature. Washing was performed 3 times with 300 μL of PBST. A series of dilution solutions of antibody samples were prepared with PBS, and added at 100 μL/well to the 96-well plate and shaken at room temperature for 1 hour. Washing was performed 3 times with 300 μL of PBST. A secondary antibody goat anti-human IgG HRP solution was prepared, added at 100 μL/well to the 96-well plate, and shaken at room temperature for 30 minutes. Washing was performed 4 times with 300 μL of PBST. 100 μL/well TMB was added to perform color development for 20 min. 100 μL/well of 0.6N H₂SO₄ was added to stop the color development, and OD450 nm was detected.
(In general: An ELISA detects its analyte on a solid surface through an enzyme-linked reagent.)

For test [2], the target named is T3, human CEACAM5 protein naturally expressed on LOVO tumor cells (human, UniProt P06731 35-685).
T3 construct: whole, on cells; Cell-surface CEACAM5 on tumor cell lines; also called LOVO cells; CEACEM5
T3 sequence (looked up): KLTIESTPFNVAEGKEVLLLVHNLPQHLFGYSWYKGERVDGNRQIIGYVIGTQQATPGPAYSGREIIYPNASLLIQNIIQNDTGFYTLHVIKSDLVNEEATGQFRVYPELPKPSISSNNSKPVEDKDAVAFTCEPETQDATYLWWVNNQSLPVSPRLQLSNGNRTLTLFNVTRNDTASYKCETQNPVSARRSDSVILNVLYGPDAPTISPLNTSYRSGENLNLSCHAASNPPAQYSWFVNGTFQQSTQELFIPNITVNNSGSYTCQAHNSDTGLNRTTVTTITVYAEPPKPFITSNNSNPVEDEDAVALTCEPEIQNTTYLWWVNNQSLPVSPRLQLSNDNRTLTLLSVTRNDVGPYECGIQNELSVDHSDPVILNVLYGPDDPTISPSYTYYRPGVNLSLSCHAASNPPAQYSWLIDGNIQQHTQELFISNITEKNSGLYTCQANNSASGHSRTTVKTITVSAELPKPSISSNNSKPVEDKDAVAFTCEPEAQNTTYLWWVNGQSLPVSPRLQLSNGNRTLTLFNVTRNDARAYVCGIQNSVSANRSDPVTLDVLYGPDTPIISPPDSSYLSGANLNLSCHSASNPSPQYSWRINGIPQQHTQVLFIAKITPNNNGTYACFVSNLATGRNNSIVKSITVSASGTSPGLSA
Description: flow cytometry on LOVO tumor cells that naturally express human CEACAM5. On the procedure:
as §1
Furthermore, we used FACS to detect the EC50 of the chimeric antibody UM05-6L binding to LOVO tumor cells that naturally expressed human CEACAM5. […] Based on the above results, the chimeric antibody UM05-6L had excellent binding affinity, specificity and selectivity to CEACAM5.

For test [3], the target named is T4, CEACAM3 protein overexpressed on SW620 cells (UniProt P40198 35-252, limits assumed).
T4 construct: whole, on cells; also called SW620-CEACAM3
T4 sequence (looked up): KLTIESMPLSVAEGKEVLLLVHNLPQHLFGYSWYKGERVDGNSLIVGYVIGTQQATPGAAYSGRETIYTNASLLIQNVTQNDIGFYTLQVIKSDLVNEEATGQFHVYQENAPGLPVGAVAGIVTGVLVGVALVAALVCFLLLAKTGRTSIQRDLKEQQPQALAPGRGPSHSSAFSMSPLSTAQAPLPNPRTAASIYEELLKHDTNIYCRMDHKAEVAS
The experiment in a line: flow cytometry on SW620-CEACAM3 cells. As for the experimental part:
as §1, §2
For orientation: Flow cytometry measures light scatter and fluorescence of single cells or particles in a stream.

For test [4], the target named is T5, CEACAM7 protein overexpressed on CHO cells (UniProt Q14002 36-242, limits assumed).
T5 construct: whole, on cells; also called CHO-CEACAM7
T5 sequence (looked up): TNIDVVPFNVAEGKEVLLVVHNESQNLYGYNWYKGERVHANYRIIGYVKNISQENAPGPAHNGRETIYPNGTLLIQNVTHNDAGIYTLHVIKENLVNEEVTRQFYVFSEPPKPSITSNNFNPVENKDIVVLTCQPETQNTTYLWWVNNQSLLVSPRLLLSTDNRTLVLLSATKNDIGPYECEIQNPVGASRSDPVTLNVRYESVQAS
The experiment in a line: flow cytometry on CHO-CEACAM7 cells. On the procedure:
as §1, §2

The target of test [5] is T6, CEACAM1 protein overexpressed on SW620 cells (UniProt P13688 35-526, limits assumed).
T6 construct: whole, on cells; also called SW620-CEACAM1
T6 sequence (looked up): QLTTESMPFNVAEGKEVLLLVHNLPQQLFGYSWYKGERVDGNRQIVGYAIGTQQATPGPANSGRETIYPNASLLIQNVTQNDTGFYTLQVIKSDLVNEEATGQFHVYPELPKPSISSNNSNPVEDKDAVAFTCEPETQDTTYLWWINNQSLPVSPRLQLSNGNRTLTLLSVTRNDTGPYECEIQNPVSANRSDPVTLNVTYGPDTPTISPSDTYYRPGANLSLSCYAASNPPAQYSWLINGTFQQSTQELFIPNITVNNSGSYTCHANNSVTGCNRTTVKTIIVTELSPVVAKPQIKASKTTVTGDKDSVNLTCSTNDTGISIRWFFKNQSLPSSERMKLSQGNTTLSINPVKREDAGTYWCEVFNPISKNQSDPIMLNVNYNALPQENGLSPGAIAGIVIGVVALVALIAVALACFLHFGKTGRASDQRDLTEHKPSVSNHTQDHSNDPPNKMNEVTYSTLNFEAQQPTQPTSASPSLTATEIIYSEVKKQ
The experiment in a line: flow cytometry on SW620-CEACAM1 cells. As for the experimental part: as §1, §2

B1: human-mouse chimeric antibody UM05-6L (antibody, human IgG1, kappa, V domains shown)
VH: EVQLQQSGPELVKPGASVKISCKASGYTFTDYYLNWVKQSPGKSLEWIGNINPINDFTTYNQKFKAKATLTVDKSSTTSYMALRSLTSEDSAVYYCTRYDGYFAYWGQGTTLTVSS
VL: DIQMNQSPSSLSASLGDTITITCHASQNINVWLSWYQQKPGNIPKLLIYKASNLHTGVPSRFSGSGSGTGFTLTISSLQPEDIATYYCQQGQSYPWTFGGGTKLEIKR
notes: expressed in HEK293 cells, purified on Protein A
As usually defined, the EC50 is the midpoint of the concentration-response curve. Read a high EC50 as a less potent agent. B1: the binding result in test [1], in test [3], in test [4] and in test [5] was “no binding (tested: 3 µg/mL)” each time. For the same molecule, the figures for the concentration for a half-maximal effect (EC50) (with human CEACAM5 protein; in test [2]) were 0.0475 mg/L and 0.276 mg/L, respectively.
